The values below come from patent US7271245B2, “Methods and compositions for inhibition of metastasis” (The Scripps Research Institute, priority 2004, dated 2007).

The subject of one assay is BMS breast cancer cells. As to the kind of experiment: Antibody internalization (confocal microscopy). The assay is classed as cell-based, human. The note with it: FITC-labeled scFv, permissive temperature (37° C.). On the procedure:
FIGS. 3A, 3B, 3C, 3D, 3E. scFv Bc-12 and Bc-15 inhibit αvβ3 mediated adhesive breast cancer cell functions. (A) Adhesion of BMS human breast cancer cells to fibrinogen (Fg), vitronectin (VN) or type I collagen (Col I) in the absence or presence of 3 μM Bc-12, Bc-15 or their RGE mutants Mut-12, Mut-15, compared to 200 μM GRGDSPK peptide (SEQ ID NO: 11). Protein coating concentrations: 10 μg/ml (VN, Col I) or 20 μg/ml (Fg). Adhesion time: 30 min at 37° C. (B) Effect of scFvs on haptotactic BMS cell migration toward a fibrinogen substrate (16 hrs at 37° C. in transwell chambers with or without 2 μM Bc-12, Bc-15 or their RGE mutants Mut-12 or Mut-15, compared to 200 μM GRGDSPK peptide) (SEQ ID NO: 11). (C) Effect of scFvs on breast cancer cell arrest during blood flow. […] Tumor cell adhesion was quantified by image acquisition at 30 predefined positions during blood flow. Left: representative images of platelet signal (thrombi, green fluorescence) and tumor cell signal (red fluorescence) at identical x,y positions. […]
Antibody internalization. Breast cancer cells grown in chamber slide wells were incubated with 20 μg/ml FITC-labeled scFv in serum free EMEM for 3 h either at 4° C. or 37° C., washed 10 times, fixed and permeabilized with 95% ethanol, stained with propidium iodide, mounted in antifade solution, and analyzed with a laser scanning confocal microscope.

Assay [1] has as its system Integrin αIIβ3 mediated adhesive platelet functions. As to the kind of experiment: Platelet adhesion and thrombus formation during blood perfusion. The assay is classed as cell-based, human. The note with it: 3 μM scFv. On the procedure: Tumor cell arrest during bloodflow. Breast cancer cell arrest during blood flow and interaction with platelets was measured as described. Felding-Habermann, et al., Proc. Natl. Acad. Sci. U.S.A 98: 1853-1858, 2001. Felding-Habermann et al., J. Biol. Chem. 271: 5892-5900, 1996. Briefly, tumor cells were suspended in human blood anticoagulated with 50 nM PPACK and perfused over a collagen I matrix at a venous wall shear rate of 50 s^−1, 2 dynes/cm^2. Adhesive events and cell interactions were visualized and recorded by fluorescence video microscopy and quantified by image acquisition at 30 predefined positions followed by computerized image analysis (MetaMorph, Universal Imaging). Tumor cells were stained with hydroethidine (red fluorescence) (20 μg/ml, 30 min, 37° C.), washed, and mixed with blood containing 10 μM mepacrine (green fluorescence). Blood cells, tumor cells, and platelets acquired green fluorescence and were visualized at 488/515 nm (excitation/emission). Tumor cells were identified by their unique red fluorescence at 543/590 nm. To test inhibition, tumor cells were incubated with 3 μM scFv for 5 min at 37° C., then mixed into blood, scFv added to 3 μM final concentration and perfused immediately.
In the circulation, metastatic tumor cells are intensely exposed to a cancer patient's immune surveillance, encountering potential function blocking antibodies like Bc-12 and Bc-15. […]

B1: Bc-12: patient derived human scFv antibody against activated αvβ3 with RGD motif in CDR-H3; cDNA ATCC PTA-6303 (protein)
scFv: MAQVQLVQSGAEVKKPGASVKVSCKASGYTFSNYGITWVRQAPGQGLEWMGWINNGNTHYAQKFQGRVTMTTDTSTSTAYMELRSLRSDDTAVYYCARDPRGDDEPYWGQGTLVTVSSGGGGSGGGGSGGGGSEIVLTQSPLSLPVTLGQPASISCRSSQNLVYSDGNTYLSWFQQRPGQSPRRLIYKVSNRDSGVPDRFSGSGSGTDFTLKISRVEAEDIGVYYCMQGTHWPPRTFGQGTKVEIKRGLGGLVDYKDDDDK
For the molecule B1, the “binding and internalization by adherent cells” value with BMS breast cancer cells was “efficiently bound and readily internalized”. Besides, in assay [1], the adhesive platelet functions entry is “not affected”.
